Positions count from the first letter of the chain named.
T1: GFP-9S library array, motif 4 ND N98C;D124Q (synthetic construct, N98C;D124Q)
T1 chain: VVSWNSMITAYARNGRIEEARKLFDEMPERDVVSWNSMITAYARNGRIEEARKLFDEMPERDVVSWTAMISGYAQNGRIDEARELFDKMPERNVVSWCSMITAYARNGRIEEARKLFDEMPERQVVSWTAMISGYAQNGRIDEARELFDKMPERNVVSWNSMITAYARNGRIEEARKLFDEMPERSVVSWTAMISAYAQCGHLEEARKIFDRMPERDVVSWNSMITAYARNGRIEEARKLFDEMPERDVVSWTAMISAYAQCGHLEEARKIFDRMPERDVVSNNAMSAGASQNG

T2: GFP-9S library array, motif 4 ND N98A;D124T (synthetic construct, N98A;D124T)
T2 chain: T1 chain with C98A, Q124T

T3: GFP-9S library array, motif 4 ND N98T;D124T (synthetic construct, N98T;D124T)
T3 chain: T1 chain with C98T, Q124T

T4: GFP-9S library array, motif 4 ND N98F;D124R (synthetic construct, N98F;D124R)
T4 chain: T1 chain with C98F, Q124R

T5: GFP-9S library array, motif 4 ND N98S;D124K (synthetic construct, N98S;D124K)
T5 chain: T1 chain with C98S, Q124K

B1: Cy5-rpoA (ssRNA)
RNA: AUUACACGUGA
B2: IR-rpoA-A (ssRNA)
RNA: AUUAAACGUGA
B3: IR-rpoA-U (ssRNA)
RNA: AUUAUACGUGA
B4: Cy5-rpoA-G (ssRNA)
RNA: AUUAGACGUGA

Assays:
Assay in all cases: high-throughput RNA pulldown from lysate on Ni-NTA beads; HRP: 50 mM Tris pH 8, 150 mM NaCl, 1 mM beta-mercaptoethanol, 50 ug/ml BSA, 3 ug/ml yeast RNA, 0.5% heparin; ITC and FP: Tris pH 8, 200 mM KCl, 5% glycerol; MST: 50 mM Tris pH 8, 200 mM NaCl, 1 mM DTT, BSA, heparin, 0.05% Tween 20
Conditions in all cases: tags: N-terminal His-eGFP
[1] = target: T1, GFP-9S library array, motif 4 ND …
[2] = target: T2, GFP-9S library array, motif 4 ND …
[3] = target: T3, GFP-9S library array, motif 4 ND …
[4] = target: T4, GFP-9S library array, motif 4 ND …
[5] = target: T5, GFP-9S library array, motif 4 ND …

| Binder | Kd ([1]; label: 5' Cy5) | Kd ([2]; label: 5' Cy5) | Kd ([3]; label: 5' Cy5) | Kd ([4]; label: 5' Cy5) | Kd ([5]; label: 5' Cy5) | Kd ([1]; label: 5' IRDye 800CW) | Kd ([2]; label: 5' IRDye 800CW) | Kd ([3]; label: 5' IRDye 800CW) | Kd ([4]; label: 5' IRDye 800CW) | Kd ([5]; label: 5' IRDye 800CW) |
| --- | --- | --- | --- | --- | --- | --- | --- | --- | --- | --- |
| B1 | 127 nM | 102 nM | 83.1 nM | 117 nM | 86.7 nM | – | – | – | – | – |
| B2 | – | – | – | – | – | 177 nM | 90.7 nM | 18.3 nM | 85.1 nM | 134 nM |
| B3 | – | – | – | – | – | 143 nM | 68.9 nM | 63.1 nM | 176 nM | 105 nM |
| B4 | 150 nM | 107 nM | 81.4 nM | 107 nM | 104 nM | – | – | – | – | – |

— paper PMC8809517, “Cofactor-independent RNA editing by a synthetic S-type PPR protein”
